One series concerns the target T1, HvExoI W434H mutant (Hordeum vulgare, UniProt Q9XEI3, W459H).
T1 sequence (Q9XEI3 26-630 W459H): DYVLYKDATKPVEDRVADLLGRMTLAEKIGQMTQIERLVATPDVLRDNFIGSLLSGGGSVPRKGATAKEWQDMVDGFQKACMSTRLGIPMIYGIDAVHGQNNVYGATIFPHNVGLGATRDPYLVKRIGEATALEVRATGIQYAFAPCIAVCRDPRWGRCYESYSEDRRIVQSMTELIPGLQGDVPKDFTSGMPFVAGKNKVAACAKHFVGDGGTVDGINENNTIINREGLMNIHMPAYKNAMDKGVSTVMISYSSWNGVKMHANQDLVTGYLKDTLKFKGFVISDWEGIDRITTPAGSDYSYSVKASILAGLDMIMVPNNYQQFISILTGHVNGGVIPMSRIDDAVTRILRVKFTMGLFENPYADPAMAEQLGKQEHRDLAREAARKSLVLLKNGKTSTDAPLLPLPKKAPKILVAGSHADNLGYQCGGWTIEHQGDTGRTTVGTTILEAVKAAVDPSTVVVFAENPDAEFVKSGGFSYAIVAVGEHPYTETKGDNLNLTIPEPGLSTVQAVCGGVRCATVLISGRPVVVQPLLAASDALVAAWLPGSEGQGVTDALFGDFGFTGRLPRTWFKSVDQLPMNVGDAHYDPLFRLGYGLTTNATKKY
Kind of series: Relative rates of hydrolysis of poly-, oligosaccharides and aryl-glycosides. In kind it is biochemical. To be noted: substance is the substrate. As for the experimental part:
(§1) Dependency of activities of WT and mutant HvExoI on pH (McIlvaine buffers in the pH range of 3.5–8.5 at 30 °C) and temperature (100 mM sodium acetate buffer, pH 5.25, temperature range 0–80 °C, 15 min incubations) were determined using 0.2% (w/v) 4NP-Glc[21],[59]. Relative rates of hydrolysis of β-linked poly-, oligosaccharides, and aryl-glucosides were determined using near-homogenous HvExoI at 50 pmoles. […] Kinetic parameters were calculated from the analyses of Michaelis-Menten plots with Grafit 7.0.3[62] and processed by a proportional weighted fit, using nonlinear regression. The relative rates of hydrolysis, kinetic, and inhibition data were rounded to one or two decimal points (Supplementary Tables 2–4).

The target in series [1] is T2, WT HvExoI (Hordeum vulgare, UniProt Q9XEI3). Described as above. The series is classed as biochemical. To be noted: substance is the substrate, HvExoI at 50 pmoles, nd = activity not detected. The protocol:
as §1

Series [2] concerns the target T3, HvExoI W286F/W434F mutant (Hordeum vulgare, UniProt Q9XEI3, W311F/W459F).
T3 sequence (Q9XEI3 26-630 W311F/W459F): T1 sequence (Q9XEI3 26-630 W459H) with W286F, H434F
The series is described as above. In kind it is biochemical. To be noted: substance is the substrate, nd = activity not detected. The protocol: as §1

Series [3] addresses T2, WT HvExoI. Kind of series: Inhibition by thio-analogues using the 4NP-Glc substrate. The series is classed as biochemical. To be noted: Recombinant WT; calculated according to ∆G = -RT ln [1/Ki]. The protocol:
as §1

A further series has as its target Native HvExoI (Hordeum vulgare, UniProt Q9XEI3). Described as above. In kind it is biochemical. To be noted: calculated according to ∆G = -RT ln [1/Ki]. As for the experimental part:
as §1

Substrate in series [4]: OC[C@H]1O[C@@H](O[C@H]2[C@H](O)[C@@H](CO)OC(O)[C@@H]2O)[C@H](O)[C@@H](O)[C@@H]1O
Kind of series: Steady-state apparent kinetic constants with substrates. In kind it is biochemical, Hordeum vulgare. To be noted: substance is the substrate, pH 5.25, 30.0 °C.

Substrate in series [5]: O=[N+]([O-])c1ccc(O[C@@H]2O[C@H](CO)[C@@H](O)[C@H](O)[C@H]2O)cc1
Described as above. In kind it is biochemical, Hordeum vulgare. To be noted: substance is the substrate, pH 5.25, 30.0 °C.

The values that follow come from publication PMC9508125, “The evolutionary advantage of an aromatic clamp in plant family 3 glycoside exo-hydrolases” (Nature Communications, 2022).

Positions count from the first letter of the chain named. Numbers in names are those of the source.

T2 sequence (Q9XEI3 entry or part of it): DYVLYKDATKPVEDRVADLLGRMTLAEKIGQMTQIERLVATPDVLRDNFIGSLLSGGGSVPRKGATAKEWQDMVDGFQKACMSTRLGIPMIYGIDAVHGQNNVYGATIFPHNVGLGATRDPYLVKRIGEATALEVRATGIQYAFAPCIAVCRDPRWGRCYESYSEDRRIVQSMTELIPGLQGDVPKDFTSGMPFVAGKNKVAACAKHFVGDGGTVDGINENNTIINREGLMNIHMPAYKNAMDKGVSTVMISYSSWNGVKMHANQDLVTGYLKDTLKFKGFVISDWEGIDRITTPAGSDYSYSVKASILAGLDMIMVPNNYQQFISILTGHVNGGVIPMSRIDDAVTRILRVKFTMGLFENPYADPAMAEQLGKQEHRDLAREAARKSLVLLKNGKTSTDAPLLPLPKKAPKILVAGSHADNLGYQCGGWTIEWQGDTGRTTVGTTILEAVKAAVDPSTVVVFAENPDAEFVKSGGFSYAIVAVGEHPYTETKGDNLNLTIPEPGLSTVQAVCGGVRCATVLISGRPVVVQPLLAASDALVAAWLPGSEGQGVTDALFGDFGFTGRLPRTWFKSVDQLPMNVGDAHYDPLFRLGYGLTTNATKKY
Sequence of Native HvExoI (Q9XEI3 entry or part of it): as above

In the case of `O=[N+]([O-])c1ccc(O[C@@H]2O[C@H](CO)[C@@H](O[C@@H]3O[C@H](CO)[C@@H](O)[C@H](O)[C@H]3O)[C@H](O)[C@H]2O)cc1` [4NP-cellobioside], the “Activity (relative rate of hydrolysis)” value on HvExoI W434H mutant is reported as 0.04 ± 0.001 μmole/min per mg protein; on WT HvExoI [1], 0.9 ± 0.01 μmole/min per mg protein.

On to lichenin, for which the “Activity (relative rate of hydrolysis)” value is given as 0.03 ± 0.01 μmole/min per mg protein at HvExoI W434H mutant, 0.03 ± 0.001 μmole/min per mg protein in series [2] and 0.8 ± 0.1 μmole/min per mg protein at WT HvExoI [1].

Consider `CO[C@@H]1O[C@H](CO)[C@@H](O)[C@H](O)[C@H]1S[C@@H]1O[C@H](CO)[C@@H](O)[C@H](O)[C@H]1O` [G2SG-OMe, methyl 2-thio-β-sophoroside], for which the ΔG at WT HvExoI [3] was -3.32 kcal/mol; at Native HvExoI, -3.75 kcal/mol.

B1: HvExoI W286F mutant (Hordeum vulgare subsp. vulgare; W311F) (protein)
chain: T1 sequence (Q9XEI3 26-630 W459H) with W286F, H434W
For the molecule B1, in series [4] (other: W286F), the Km stood at 400 ± 40 µM, the kcat came to 2.6 ± 0.2 s⁻¹ and the catalytic efficiency (kcat/Km) was 5800 ± 400 M⁻¹ s⁻¹. Besides, in series [5] (other: W286F), the Km worked out at 2400 ± 300 µM, the kcat amounted to 1.9 ± 0.1 s⁻¹ and the kcat/Km is 800 ± 10 M⁻¹ s⁻¹.

B2: HvExoI W434Y mutant (Hordeum vulgare subsp. vulgare; W459Y) (protein)
chain: T1 sequence (Q9XEI3 26-630 W459H) with H434Y
Consider B2, for which, in series [4] (other: W434Y), the Km was 600 ± 100 µM, the kcat was 2.0 ± 0.1 s⁻¹ and the kcat/Km turned out to be 3300 ± 300 M⁻¹ s⁻¹. Besides, in series [5] (other: W434Y), the Km came out at 300 ± 30 µM, the kcat came to 1.2 ± 0.1 s⁻¹ and the kcat/Km is 3500 ± 400 M⁻¹ s⁻¹.

B3: HvExoI W286Y mutant (Hordeum vulgare subsp. vulgare; W311Y) (protein)
chain: T1 sequence (Q9XEI3 26-630 W459H) with W286Y, H434W
As for B3, in series [4] (other: W286Y), the Km worked out at 400 ± 40 µM, the kcat was determined as 20.7 ± 1.7 s⁻¹ and the kcat/Km was 52600 ± 1500 M⁻¹ s⁻¹. In series [5] (other: W286Y), the Michaelis constant (Km) was 2000 ± 100 µM, the kcat stood at 28.8 ± 2.9 s⁻¹ and the kcat/Km was determined as 14600 ± 1500 M⁻¹ s⁻¹.

B4: HvExoI W286F/W434A mutant (Hordeum vulgare subsp. vulgare; W311F/W459A) (protein)
chain: T1 sequence (Q9XEI3 26-630 W459H) with W286F, H434A
Turning to B4, in series [4] (other: W286F/W434A), the Km was found to be 700 ± 200 µM, the kcat came out at 0.2 ± 0.02 s⁻¹ and the kcat/Km is 200 ± 30 M⁻¹ s⁻¹. Further, in series [5] (other: W286F/W434A), the Km was determined as 700 ± 40 µM, the kcat came to 1.9 ± 0.1 s⁻¹ and the kcat/Km was determined as 2500 ± 200 M⁻¹ s⁻¹.

B5: HvExoI W434A mutant (Hordeum vulgare subsp. vulgare; W459A) (protein)
chain: T1 sequence (Q9XEI3 26-630 W459H) with H434A
B5: in series [4] (other: W434A), the Km was found to be 2100 ± 200 µM, the catalytic constant (kcat) stood at 2.6 ± 0.2 s⁻¹ and the kcat/Km was 1300 ± 100 M⁻¹ s⁻¹. Further, in series [5] (other: W434A), the Km is 500 ± 100 µM, the catalytic constant (kcat) was 9.5 ± 0.7 s⁻¹ and the kcat/Km is 17600 ± 1800 M⁻¹ s⁻¹.

B6: WT HvExoI (Hordeum vulgare subsp. vulgare) (protein)
chain: T1 sequence (Q9XEI3 26-630 W459H) with H434W
As for B6, in series [5] (other: WT), the Km was 2000 ± 150 µM, the kcat turned out to be 27.7 ± 2.5 s⁻¹ and the specificity constant (kcat/Km) was determined as 13900 ± 600 M⁻¹ s⁻¹.

B7: HvExoI W286F/W434F mutant (Hordeum vulgare subsp. vulgare; W311F/W459F) (protein)
chain: T1 sequence (Q9XEI3 26-630 W459H) with W286F, H434F
On to B7, for which, in series [4] (other: W286F/W434F), the Km stood at 200 ± 20 µM, the turnover number (kcat) was 0.5 ± 0.04 s⁻¹ and the kcat/Km worked out at 3000 ± 600 M⁻¹ s⁻¹. Moreover, in series [5] (other: W286F/W434F), the Km amounted to 600 ± 100 µM, the kcat worked out at 0.7 ± 0.02 s⁻¹ and the kcat/Km was 1200 ± 200 M⁻¹ s⁻¹.

B8: HvExoI W434F mutant (Hordeum vulgare subsp. vulgare; W459F) (protein)
chain: T1 sequence (Q9XEI3 26-630 W459H) with H434F
As for B8, in series [4] (other: W434F), the Km was found to be 1700 ± 200 µM, the kcat amounted to 17.1 ± 1.6 s⁻¹ and the kcat/Km is 9900 ± 1200 M⁻¹ s⁻¹. Moreover, in series [5] (other: W434F), the Km amounted to 600 ± 40 µM, the kcat was 6.6 ± 0.7 s⁻¹ and the kcat/Km is 12700 ± 2100 M⁻¹ s⁻¹.

B9: HvExoI W434H mutant (Hordeum vulgare subsp. vulgare; W459H) (protein)
chain: T1 sequence (Q9XEI3 26-630 W459H)
Consider B9, for which, in series [4] (other: W434H), the Km is 1700 ± 400 µM, the kcat is 51.8 ± 2.0 s⁻¹ and the kcat/Km was determined as 31300 ± 7300 M⁻¹ s⁻¹. Moreover, in series [5] (other: W434H), the Km is 2200 ± 200 µM, the catalytic constant (kcat) is 7.7 ± 0.6 s⁻¹ and the kcat/Km is 3500 ± 400 M⁻¹ s⁻¹.

In general, Km refers to the concentration of substrate that gives half-maximal velocity. The term kcat denotes the maximal rate divided by the concentration of active sites. A word on the kcat/Km: it is the turnover number divided by the Michaelis constant.
